Results on 2 molecules are retold here after paper PMC5797297, “92R Monoclonal Antibody Inhibits Human CCR9^+ Leukemia Cells Growth in NSG Mice Xenografts” (Frontiers in Immunology, 2018).

Assay [1] concerns the target T1, hCCR9(2–22) synthetic peptide (coat of the ELISA; competitor in SPR) (Homo sapiens, CCR9 isoform A, UniProt P51686).
T1 construct: human CCR9 isoform A, residues 2-22; May be the same peptide as m5; also called hCCR9 (aa 2–22) synthetic peptide; peptide hCCR9 (2–22); source: synthetic peptide
T1 chain: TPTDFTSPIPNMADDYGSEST
Kind of assay: ELISA; competitive ELISA: hCCR9(2–22) peptide coated at 1 µg/ml in PBS overnight at 4°C; biotin-labeled mAb mixed with unlabeled mAb (2 µg/ml in PBS–0.5% BSA), 1 h at room temperature; peroxidase-labeled streptavidin. Conditions: both partners purified.

The target in assay [2] is T2, endogenous CCR9 on MOLT-4 human T-ALL cells (Homo sapiens (Human)., UniProt P51686).
T2 construct: human CCR9 as expressed by MOLT-4 cells; also called CCR9^+ MOLT-4 cells; source: endogenous, on MOLT-4 cells
T2 sequence (P51686 whole entry): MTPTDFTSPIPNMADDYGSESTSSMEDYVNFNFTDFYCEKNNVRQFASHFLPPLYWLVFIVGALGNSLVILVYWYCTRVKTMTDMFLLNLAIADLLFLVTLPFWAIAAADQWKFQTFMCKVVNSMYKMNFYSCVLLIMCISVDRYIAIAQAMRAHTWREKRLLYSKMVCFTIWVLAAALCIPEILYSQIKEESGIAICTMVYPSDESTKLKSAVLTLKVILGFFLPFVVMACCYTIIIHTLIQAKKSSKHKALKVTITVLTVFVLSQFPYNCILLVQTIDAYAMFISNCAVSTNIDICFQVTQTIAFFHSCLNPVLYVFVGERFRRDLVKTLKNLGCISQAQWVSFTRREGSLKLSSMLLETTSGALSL
Kind of assay: flow cytometry on cells; 2 x 10^5 cells blocked with 40 µg/ml rat IgG, incubated with the primary mAb 30 min at 4°C in PBS pH 7.4 with 0.5% BSA, 1% FBS, 0.1% sodium azide; revealed with FITC- or PE-goat F(ab')2 anti-mouse IgG. The settings on record: one partner purified.

The target in assay [3] is T3, human chemokine receptor CCR9, A isoform, on stably transfected HEK-293 cells (Homo sapiens (Human)., UniProt P51686-1).
T3 construct: also called hCCR9-A; hCCR9-HEK-293; source: HEK-293, stably transfected (pCIneo-hCCR9), on cells
T3 sequence (P51686 whole entry, canonical isoform): as the sequence (P51686 whole entry) above
Described as above. The settings on record: one partner purified.

The target of assay [4] is T4, synthetic peptide hCCR9A aa 2–22 with an additional N-terminal cysteine (Homo sapiens (Human).).
T4 construct: additional cysteine residue at the N terminus; human CCR9 isoform A, residues 2-22; Amine-coupled to a CM5 chip for the kinetic SPR; also called hCCR9 (2–22); source: synthetic peptide
T4 chain: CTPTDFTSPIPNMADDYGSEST
Kind of assay: SPR; Biacore 3000; Cys-hCCR9A(2–22) peptide amine-coupled at low density to a CM5 chip; mAb as analyte at 0.41 to 33 nM; HBS-EP pH 7.4, 25°C, 30 µl/min; bivalent analyte model; apparent. Conditions: both partners purified.

The target in assay [5] is T5, peptide hCCR9 (13–30), corresponding to the N-terminus of the B isoform (Homo sapiens, UniProt P51686-1).
T5 construct: human CCR9, residues 13-30 on the numbering of isoform A (the B isoform starts in M13 of hCCR9-A); source: synthetic peptide
T5 chain: MADDYGSESTSSMEDYVN
Kind of assay: SPR; competition: biotin-K-hCCR9A(2–19) captured on a streptavidin (SA) chip; mAb at 10 nM preincubated 30 min with competitor peptide (0.01–1 µM; 1 µM in Figure 6C,D); HBS-EP pH 7.4. The settings on record: both partners purified.

For assay [6], the target named is T6, peptide hCCR9 (10–30) (Homo sapiens (Human)., UniProt P51686-1).
T6 construct: human CCR9 isoform A, residues 10-30; source: synthetic peptide
T6 chain: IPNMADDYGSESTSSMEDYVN
The description is as above. The settings on record: both partners purified.

Positions count from the first letter of the chain named.

B1: 92R, mouse anti-human CCR9 monoclonal antibody (IgG2a) (antibody, V domains shown)
VH: EVKLEESGGGLVQPGGSMKLSCVASGFTFNKFWMNWVRQSPEKGLEWVAEIRLKSNNYATHYAESVKGRFTISRDDSKSSVYLQMNNLRAEDTGIYYCASDGWFAYWGQGTLVTVSA
VL: DVVMTQTPLSLPVSLGDQASISCRSSQSLVHSNGNTYLNWCLQRPGQSPKSLIYKVSNRFSGVPDRFSGSGSGTDFTLKISRVEAEDLGVYFCSQSTHFPRTFGGGTKLEIK
notes: heavy chain variable region of 92R; mouse IgG2a heavy chain constant region (isotype as stated); light chain variable region of 92R; light chain constant region; IgG2a; also called 92R mAb; anti-hCCR9 92R; source: mouse hybridoma, mAb purified from culture supernatants
On to B1, for which the binding result is listed as “binds” in assay [1]; “binds” in assay [2]; “binds” in assay [3]; “no binding (tested: 1 µM)” in assay [5]; “binds” in assay [6]. The Kd in assay [4] came to 8.9 nM.

B2: 91R, mouse anti-human CCR9 monoclonal antibody (IgG2b) (antibody, V domains shown)
VH: B1 VH with E6D, G16R, N30S, K31N, A90T, A99T
VL: DVVMTQTPLSLPVSLGDQTSISCRSSQSLLHSNGNTYVQWYLRKPGQSPKLLIYKVSNRFPGVPDRFSGSGSGTDFTFKISRVEAEDLGVYFCAQSTHVPRTFGGGTKLEIK
notes: heavy chain variable region of 91R; mouse IgG2b heavy chain constant region (isotype as stated); light chain variable region of 91R; light chain constant region; IgG2b; also called 91R mAb; anti-hCCR9 91R; source: mouse hybridoma, mAb purified from culture supernatants
As to B2, the binding result was “binds” in assay [1], “binds” in assay [2] and “no binding (tested: 1 µM)” in assay [5]. Further, the Kd in assay [4] worked out at 3.6 nM.
